Laboratory results: PMC9170159 (Proceedings of the National Academy of Sciences of the …, 2022)

B1: NCI-CoV-7A3 monomeric VHH (VHH-His) (VHH)
VHH: QVQLVESGGGSVQPGGSLRLSCVVSGYTSSSRYMGWFRQVPGKGLEWVSGIKRDGTNTYYADSVKGRFTISQDNAKNTVYLQMNSLKPEDTAMYYCAAGSWYNQWGYSMDYWGKGTQVTVSS
B2: NCI-CoV-2F7 VHH-hFc fusion protein (Fc fusion)
VHH: QVKLEESGGGSVQSGGSLRLSCTVSRDTNTNINRCMGWFRQAPGKGLETVATINRDGTNTYYTDAVKGRFTISQDNVKNTVYLQMNNLTPEDTGTYICNAMGRGSGSRCDNWDPNYWGQGTQVTVSS
notes: also called 2F7 VHH-Fc; source: Expi293 cells, transfected, purified (protein A column)
B3: NCI-CoV-2F7 monomeric VHH (VHH-His) (VHH)
VHH: B2 VHH
B4: NCI-CoV-8A2 monomeric VHH (VHH-His) (VHH)
VHH: AVQLVDSGGGSVQAGGSLRLSCAASGYTYSICTMGWYRQAPGEGLEWVSGINADGSNTHYTDSVKGRFTISRDNAKKTLYLQMNSLKPEDTAIYYCAAHGTYDKYAPCGGFAGTYTYWGQGTQVTVSS

Key:
[1] = target: SARS-CoV-2 spike receptor-binding domain (RBD), Wuhan-Hu-1, His-tagged (SARS-CoV-2 (Wuhan-Hu-1), UniProt P0DTC2); experiment: BLI; conditions: both partners purified
[2] = target: SARS-CoV-2 (Wuhan-Hu-1) spike receptor-binding domain, His-tagged (SARS-CoV-2, UniProt P0DTC2 319-541); experiment: BLI; conditions: both partners purified

Binder | Kd [1] [pM] | Kd [2] [pM]
B1 | 960 | –
B2 | – | 770
B3 | 750 | –
B4 | 800 | –
